According to US20220160939A1, “SELF-ASSEMBLING PEPTIDES AS BRONCHIAL OBSTRUCTION AGENTS” (3-D MATRIX, LTD., priority 2014, published 2022):
Where no end group is shown, it is not given here.

Experiments:
[1] = Salt ionic strength plus pH adjustment: appearance and rheological properties; format: physicochemical; settings: 0.9% NaCl (ionic strength: 0.15 M) at pH 3.4 adjusted with NaOH
Description: In accordance with one or more embodiments, IEIK13 (SEQ ID NO:2), KLD12 (SEQ ID NO:3), and PuraMatrix® (SEQ ID NO:1) may be dissolved both in salt buffer such as NaCl and at an elevated pH level adjusted with alkali salt buffer such as NaOH to keep their salt ionic strength under their critical salt points as well as their pH level to about 2.5˜4.0, so that they may have stiffer properties. With respect to PuraMatrix® (SEQ ID NO:1), […] and IEIK13 (SEQ ID NO:2), the peptide solutions are still clear with 0.9% NaCl (ionic strength: 0.15 M) at pH 3.4 adjusted with NaOH. The rheological property of PuraMatrix® (SEQ ID NO:1) with 0.9% NaCl (ionic strength: 0.15 M) at pH 3.4 was stiffer than those of PuraMatrix® (SEQ ID NO:1) control and PuraMatrix® (SEQ ID NO:1) with only NaCl 0.9%. The effect of salt ionic strength and pH adjustment on the rheological properties of PuraMatrix® (SEQ ID NO:1) 2.5% solution are shown in FIG. 20. Frequency sweep tests were performed from 1 rad/sec to 10 rad/sec at 1 Pa and the storage modulus at 1 rad/sec was selected for data.

[2] = Appearance of 1.5% peptide solutions with various salts at room temperature; format: physicochemical; settings: for Appearance: room temperature
Experimental: The effect of salt ionic strength level on the properties of peptide solutions was evaluated to identify optimized salt ionic strength levels for the peptides as described herein. Increasing the salt ionic strength level of PuraMatrix® (SEQ ID NO:1) and other peptides may generally improve its function and mechanical strength for various clinical applications. To adjust the salt ionic strength of the peptide solutions by way of example, various salt buffer solutions including NaCl, KCl, MgCl2, CaCl2 and DPBS (10×) were added to 2 mL of 1.5% peptide solutions.

KLDLKLDLKLDL [KLD12]
Slightly cloudy, thick, stiffer gel: Appearance ([2]; CaCl2 0.133 M, ionic strength 0.4 M, conc. 1.43%) | Appearance ([2]; KCl 0.3 M, ionic strength 0.3 M, conc. 1.35%) | Appearance ([2]; MgCl2 0.133 M, ionic strength 0.4 M, conc. 1.43%) | Appearance ([2]; NaCl 0.3 M, ionic strength 0.3 M, conc. 1.35%)
Cloudy, phase-separated: Appearance ([2]; CaCl2 0.167 M, ionic strength 0.5 M, conc. 1.42%) | Appearance ([2]; KCl 0.4 M, ionic strength 0.4 M, conc. 1.3%) | Appearance ([2]; MgCl2 0.167 M, ionic strength 0.5 M, conc. 1.42%) | Appearance ([2]; NaCl 0.4 M, ionic strength 0.4 M, conc. 1.3%)
still clear: appearance of peptide solutions [1]
0.3˜0.4 M: critical salt ionic strengths at which peptides become cloudy [2]
Slightly cloudy, brittle gel: Appearance ([2]; CaCl2 0.15 M, ionic strength 0.45 M, conc. 1.43%) | Appearance ([2]; KCl 0.35 M, ionic strength 0.35 M, conc. 1.32%) | Appearance ([2]; MgCl2 0.15 M, ionic strength 0.45 M, conc. 1.43%) | Appearance ([2]; NaCl 0.35 M, ionic strength 0.35 M, conc. 1.32%)
0.25˜0.35 M: salt ionic strength increase that did not change the clear color, while apparent stiffness increased ([2]; depending on different salts, 1.5% peptide solutions)
Clear, thick, stiffer gel: Appearance ([2]; CaCl2 0.05 M, ionic strength 0.15 M, conc. 1.48%) | Appearance ([2]; CaCl2 0.067 M, ionic strength 0.2 M, conc. 1.47%) | Appearance ([2]; CaCl2 0.083 M, ionic strength 0.25 M, conc. 1.46%) | Appearance ([2]; CaCl2 0.1 M, ionic strength 0.3 M, conc. 1.45%) | Appearance ([2]; CaCl2 0.117 M, ionic strength 0.35 M, conc. 1.44%) | Appearance ([2]; KCl 0.05 M, ionic strength 0.5 M, conc. 1.48%) | Appearance ([2]; KCl 0.1 M, ionic strength 0.1 M, conc. 1.45%) | Appearance ([2]; KCl 0.15 M, ionic strength 0.15 M, conc. 1.43%) | Appearance ([2]; KCl 0.2 M, ionic strength 0.2 M, conc. 1.4%) | Appearance ([2]; KCl 0.25 M, ionic strength 0.25 M, conc. 1.38%) | Appearance ([2]; MgCl2 0.05 M, ionic strength 0.15 M, conc. 1.48%) | Appearance ([2]; MgCl2 0.067 M, ionic strength 0.2 M, conc. 1.47%) | Appearance ([2]; MgCl2 0.083 M, ionic strength 0.25 M, conc. 1.46%) | Appearance ([2]; MgCl2 0.1 M, ionic strength 0.3 M, conc. 1.45%) | Appearance ([2]; MgCl2 0.117 M, ionic strength 0.35 M, conc. 1.44%) | Appearance ([2]; NaCl 0.05 M, ionic strength 0.5 M, conc. 1.48%) | Appearance ([2]; NaCl 0.1 M, ionic strength 0.1 M, conc. 1.45%) | Appearance ([2]; NaCl 0.15 M, ionic strength 0.15 M, conc. 1.43%) | Appearance ([2]; NaCl 0.2 M, ionic strength 0.2 M, conc. 1.4%) | Appearance ([2]; NaCl 0.25 M, ionic strength 0.25 M, conc. 1.38%)
Clear, thick gel: Appearance ([2]; CaCl2 0 M, ionic strength 0 M, conc. 1.5%) | Appearance ([2]; KCl 0 M, ionic strength 0 M, conc. 1.5%) | Appearance ([2]; MgCl2 0 M, ionic strength 0 M, conc. 1.5%) | Appearance ([2]; NaCl 0 M, ionic strength 0 M, conc. 1.5%)
